{"source": "the nanobody polyreactivity screen of Harvey et al. (2022)", "data": [{"assay": "yeast display, Sf9 membrane polyspecificity reagent, FACS + sequencing; frameworks hold sequencing errors", "in_short": "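A nanobody's polyreactivity label depends on the gate it was sorted from. Yeast display cells were stained with 10% biotinylated, detergent-solubilized Sf9 membrane reagent for 1 hour at 4 °C, enriched on streptavidin microbeads and sorted by FACS. The low and high (top ~1%) gates were set on anti-HA fluorescence for expression and streptavidin fluorescence for reagent binding.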", "values": [{"sequence": "QVQLVESGGGLVQAGGSLRLSCAASGRIFLYYAMGWYRQAPGKERELVATISSGGSTTYADSVKGRFTISRDNAKNTVYLQMNSLKPEDTAVYYCATQVPGYSGRYDYWGQGTQVTVSS", "polyreactivity (PSR sort gate)": "low polyreactivity"}, {"sequence": "QVQLVESGGGLVQAGGSLRLSCAASGRIFLYYTMGWYRQAPGKERELVADITWRGGYTYYADSVKGRFTISRDNAKNTVYLQMNSLKPQDTAVYYFNAVSVSYKRSDYWGQGTQVTVSS", "polyreactivity (PSR sort gate)": "low polyreactivity"}, {"sequence": "QVQLVESGGGLVQAGGSLRLSCAASGRIFNAYAMGWYRQAPGKERELVAAITDDGGTNYADSVKGRFTISRDNAKNTVYLQMNSLKPEDTAVYYCAATYLIGYYYVWEYDYWGQGTQVTVSS", "polyreactivity (PSR sort gate)": "low polyreactivity"}, {"sequence": "QVQLVESGGGLVQAGGSLRLSCAASGRIFNAYAMGWYRQAPGKERELVATISWRTGSTYYADSVKGRFTISRDNAKNTVYLQINSLKPEDTAVYYCNAKVGSYGAQGYRFAYNYWGQGTQVTVSS", "polyreactivity (PSR sort gate)": "high polyreactivity"}, {"sequence": "QVQLVESGGGLVQAGGSLRLSCAASGRIFNDYTMGWYRPAPGKERELVAAITNRDTSTSYADSVKGRFTISRDNAKNTVYLQMNSLKPEDTAVYYCNAQQVIVVYRPGDYWGQGTQVTVSS", "polyreactivity (PSR sort gate)": "low polyreactivity"}, {"sequence": "QVQLVESGGGLVQAGGSLRLSCAASGRIFNFYAMGWYRQAPGKEWELVAAITNGGGTKYADSVKGRFTISRDNAKNTVYLQMNSLKPEDTAVYYCAARYYRRQRGQTSHSRFGYWGQGTQVTVSS", "polyreactivity (PSR sort gate)": "high polyreactivity"}, {"sequence": "QVQLVESGGGLVQAGGSLRLSCAASGRIFNIYAMGWYRQAPGKERELVAAISVSGTRTYYADSVKGRFTISRDNAKNTVYLQMNSLKPEDTAVYYCAADSYGGDWTEHMYYWGQGTQVTVSS", "polyreactivity (PSR sort gate)": "low polyreactivity"}, {"sequence": "QVQLVESGGGLVQAGGSLRLSCAASGRIFNKYVMGWYRQAPGKERELVAAISGRGGSTYYADYVKGRFTISRDNAKNTVYLQMNSLKPEDTAVYYCAARYGYYTSDYKYYDWGQGTQVTVSS", "polyreactivity (PSR sort gate)": "high polyreactivity"}, {"sequence": "QVQLVESGGGLVQAGGSLRLSCAASGRIFNPYAMGWYRKAPGKERELVAAISRGGRTYYADSVKGRFTISRDNAKNTVYLQMNSLKPEDTAVYYCAKLPSRRWAYDYWGQGTQVTVSS", "polyreactivity (PSR sort gate)": "high polyreactivity"}, {"sequence": "QVQLVESGGGLVQAGGSLRLSCAASGRIFNQYGMGWYRPAPGKERELVAAIRSGDSTNYADSVKGRFTISRDNAKNTVELQMNSLKPEDTAVYYCARDRPGDYAGYDYWGQGTQVTVSS", "polyreactivity (PSR sort gate)": "low polyreactivity"}, {"sequence": "QVQLVESGGGLVQAGGSLRLSCAASGRIFNQYGMGWYRPAPGKERELVAAIRYGDSTNYADSVKGRFTISRDNAKNTVYLQMNSLKPEDTAVYYCARDPAGDYAGYDYWGQGTQVTVSS", "polyreactivity (PSR sort gate)": "low polyreactivity"}, {"sequence": "QVQLVESGGGLVQAGGSLRLSCAASGRIFNRYAMGWYRQAPGKEREFVAGITWNGGSTYYADSVKGRFTISRDNAKNTVYLQMNSLKPEDTAVYYCAATHYYYGTSRYDYWGQGTQVTVSS", "polyreactivity (PSR sort gate)": "high polyreactivity"}, {"sequence": "QVQLVESGGGLVQAGGSLRLSCAASGRIFNSYAMGWSRQAPGNERELVAAISSGGSTYYADSVKGRFTISRDNAKNTVYLQMNSLKPEDTAVYYCAARIWTGRGRKLGYGYDYWGQGTQVTVSS", "polyreactivity (PSR sort gate)": "low polyreactivity"}, {"sequence": "QVQLVESGGGLVQAGGSLRLSCAASGRIFNVYAMGWYRPAPGTERELVAAIRRRGDRTYYADSVKGRFTLSRDNAKNTVYLQMNSLNPEDTADYYCAKSQSAKGGYDYWGQGTQVTVSS", "polyreactivity (PSR sort gate)": "high polyreactivity"}, {"sequence": "QVQLVESGGGLVQAGGSLRLSCAASGRIFNYNAMGWYRQAPGKERELVAAIDWSGGRTYYADSVKGRFTISRDNAKNTVYLQMNSLKPEDTAVYYCNTVGYSLRLRTGGYWGQGTQVTVSS", "polyreactivity (PSR sort gate)": "high polyreactivity"}, {"sequence": "QVQLVESGGGLVQAGGSLRLSCAASGRIFNYNAMGWYRQAPGKERELVATITRGGNTYYADSVKGRFTISRDNAKNTVYLQMNSLKPEDTAVYYCNAAWWKVSYVRQKYYYWGQGTQVTVSS", "polyreactivity (PSR sort gate)": "high polyreactivity"}, {"sequence": "QVQLVESGGGLVQAGGSLRLSCAASGRIFNYNAMGWYRQAPGKERELVATITYSDATTYYADSVKGRFTISRDNAKITVYLQMNSLKPEDTAVYYCNAPSRSYDRYISAGRRYDYWGQGTQVTVSS", "polyreactivity (PSR sort gate)": "low polyreactivity"}, {"sequence": "QVQLVESGGGLVQAGGSLRLSCAASGRIFNYNAMGWYRQAPGKERELVAVITSGDSTNYADSVKGRFTISRDNAKNTVYLQMNSLKPVDTAVYYCAAEYYSIRYGPNSIEVYGMDYWGQGTQVTVSS", "polyreactivity (PSR sort gate)": "low polyreactivity"}, {"sequence": "QVQLVESGGGLVQAGGSLRLSCAASGRIFPAYAMGWYRQAPGKERELVAAITWTGGRTYYADSVKGRFTISRDNAKNSFYLQMNILKPEDTAVYYCAKAPARSRGYEYWGQGTQVTVSS", "polyreactivity (PSR sort gate)": "low polyreactivity"}, {"sequence": "QVQLVESGGGLVQAGGSLRLSCAASGRIFPAYVMGWYRQAPVKERELVATIDNGGGTYYADSVKGRFTISRDNAKNTVYLQMNSLKPEDTAVYYCARDRHVRWGLKMDYWGLGTQVTVSS", "polyreactivity (PSR sort gate)": "low polyreactivity"}, {"sequence": "QVQLVESGGGLVQAGGSLRLSCAASGRIFPDNAMGWYRQAPGKERELVASITSGASTNYADSVKGRFTISRDNAKNTVYLQMNSLKPEDTAVYYCAAVTYAQYRRFDYWGQGTQVTVSS", "polyreactivity (PSR sort gate)": "high polyreactivity"}, {"sequence": "QVQLVESGGGLVQAGGSLRLSCAASGRIFPDYDMGWYRQAPGKERELVAAITQRGGSTYADSVKGRFTISRDNAKNTVYLQMNSLKPEDTAVYYCAREYYEGYEYWGQGTQVTVSS", "polyreactivity (PSR sort gate)": "low polyreactivity"}, {"sequence": "QVQLVESGGGLVQAGGSLRLSCAASGRIFPDYDMGWYRQAPGKERELVASISTRGGSTYADSVKGRFTISRDNAKNTVYLQMNSLKPEDTAVYYCATDGWKQSAYDYWGQGTQVTVSS", "polyreactivity (PSR sort gate)": "low polyreactivity"}, {"sequence": "QVQLVESGGGLVQAGGSLRLSCAASGRIFPEYTMGWYRQAPGKERELVAAISKRGSSTNYADSVKGRFTISRDNAKNTVYLQMNSLKPEDTAVYYCAARGYTLSYVDMYYWGQGTQVIVSS", "polyreactivity (PSR sort gate)": "high polyreactivity"}, {"sequence": "QVQLVESGGGLVQAGGSLRLSCAASGRIFPFNAMGWYRQAPGKERELVAAITSSGGRTYYADSVKGRFTISRDNAKNTVYLQMNSLKPEDTAVYYCAATLVRRARSGPMGYWGQGTQVTVSS", "polyreactivity (PSR sort gate)": "high polyreactivity"}, {"sequence": "QVQLVESGGGLVQAGGSLRLSCAASGRIFPFNAMGWYRQAPGKERELVAVITWDGGSTYYADSVKGRFTISRDNAKNTVYLQMNSLKPEDTAVYYCAADIRRYYPGYEYWGQGTQVTVSS", "polyreactivity (PSR sort gate)": "low polyreactivity"}, {"sequence": "QVQLVESGGGLVQAGGSLRLSCAASGRIFPFYAMGWYRPATWIQRELVAAITSSGGRTYYADSVKGRFTISRDIAKNTVYLQMNSLKPEETAVYYCAAGHGCYYRYFSQRDYWGQGTQVTVSS", "polyreactivity (PSR sort gate)": "low polyreactivity"}, {"sequence": "QVQLVESGGGLVQAGGSLRLSCAASGRIFPFYAMGWYRQAPGKERELVAAITSSGGRTYYADSVKGRFTISRDNAKNTVYLQMNSLKPEDTAVYYCAAGHGGYYRYFSQRDYWGQGTQVTVSS", "polyreactivity (PSR sort gate)": "low polyreactivity"}, {"sequence": "QVQLVESGGGLVQAGGSLRLSCAASGRIFPFYDMGWYRQAPGKERELVAAITSGTGTYYADSVKGRFTISRDNAKNTVYLQIYSLKPEDTAVYYCNARRYLRGYWGQGTQVTVSS", "polyreactivity (PSR sort gate)": "low polyreactivity"}, {"sequence": "QVQLVESGGGLVQAGGSLRLSCAASGRIFPFYVMGWDRQAPGKERELVATINWSGGSTYYADSVKGRFTISRDNAKNTLYLQMNSLKPEDTAVYYCNAAPSDDYDYWGQGTQVTVSS", "polyreactivity (PSR sort gate)": "low polyreactivity"}, {"sequence": "QVQLVESGGGLVQAGGSLRLSCAASGRIFPGNPMGWYRQAPGKERELVAGISFSGGRTYYADSVKGRFTISRDNAKNTVYLQMNSLKPEDTAVYYCAADAQAPPGGFKEYDYWGQGTQVTVSS", "polyreactivity (PSR sort gate)": "low polyreactivity"}, {"sequence": "QVQLVESGGGLVQAGGSLRLSCAASGRIFPGNTMGWYRQAPGKERELVAAITRGGSTSYADSVKGRFTISRDNAKNTVYLQMNSLKPEDTAVYYCATRTHGEGTRRDSWGQGTQVTVSS", "polyreactivity (PSR sort gate)": "low polyreactivity"}, {"sequence": "QVQLVESGGGLVQAGGSLRLSCAASGRIFPGYAMGWYRQAPGKERELVAAISGGGGRTYYADSVKGRFTISRDNAKNTVYLQMNSLKPEDTAVYYCAADTTPPRGFDYWGQGTQVTVSS", "polyreactivity (PSR sort gate)": "high polyreactivity"}, {"sequence": "QVQLVESGGGLVQAGGSLRLSCAASGRIFPHYSMGWYRQAPGKERELVAAISWSGSSTYYADSVKGRFTISRDNAKNTVYLQMNSLKPEDTAVYYCNAVRRGIGYDYGYWGQGTQVTVSS", "polyreactivity (PSR sort gate)": "high polyreactivity"}, {"sequence": "QVQLVESGGGLVQAGGSLRLSCAASGRIFPKNAMGWYRQAPGKERELVASISSAGSTNYADSVKGRFTISRDNAKNTVYLQMNSLKPEDTAVYYCAAYHQSFGGVKGYYWGQGTQVTVSS", "polyreactivity (PSR sort gate)": "high polyreactivity"}, {"sequence": "QVQLVESGGGLVQAGGSLRLSCAASGRIFPKYAMGWYRQAPGKERELVAGITKRVGSTYYADSVKGRFTISRDNAKNTVYLQMNSLKPEDTAVYYCAKRWVSRTHGYWGQGTQVTVSS", "polyreactivity (PSR sort gate)": "low polyreactivity"}, {"sequence": "QVQLVESGGGLVQAGGSLRLSCAASGRIFPKYAMVWYRQAPGKERELVAGITKRVGSTYYADSVKGRFTISRDNAKNTVYLQMNSLKPEDTAVYYCAADYRYLIDYLDPEKEGMDYWGQGTQVTVSS", "polyreactivity (PSR sort gate)": "low polyreactivity"}, {"sequence": "QVQLVESGGGLVQAGGSLRLSCAASGRIFPPNAMGWYRQAPGKERELVAGITSSGDTTYYADSVKGRFTISRDNAKNTVYLQMNSLKPEDTAVYYCAKDEVYADDRSALFDYWGQGTQVTVSS", "polyreactivity (PSR sort gate)": "low polyreactivity"}, {"sequence": "QVQLVESGGGLVQAGGSLRLSCAASGRIFPPYAMGWYRQAPGKERELVAAISCGGSRTYYADSVKGRFTISRDNAKNTVYLQMNSLKPEDTAVYYCAAKNYLAKSGDYWGQGTQVTVSS", "polyreactivity (PSR sort gate)": "high polyreactivity"}, {"sequence": "QVQLVESGGGLVQAGGSLRLSCAASGRIFPQYAMGWYRQAPGKERELVAAISVSGTRTYYADSVKGRFTISRDNAKNTVYLQMNSLKPEDTAVYYCNTLGKYDGFYYWGQGTQVTVSS", "polyreactivity (PSR sort gate)": "high polyreactivity"}, {"sequence": "QVQLVESGGGLVQAGGSLRLSCAASGRIFPRNAMGWYRQAPGQERELVAAITKSGGSTYYADSVKGRFTISRDNAKNTVYLQMNSLKPEDTAVYYCNAVQYRNYYWGQGTQVTVSS", "polyreactivity (PSR sort gate)": "high polyreactivity"}, {"sequence": "QVQLVESGGGLVQAGGSLRLSCAASGRIFPRYAMGWYRQAPGKERELVAAITTGGSTYADSVKGRFTISRDNAKNTVYLQMNSLKPEDTAVYYCAKRDSNKRDYWGQGTQVTVSS", "polyreactivity (PSR sort gate)": "low polyreactivity"}, {"sequence": "QVQLVESGGGLVQAGGSLRLSCAASGRIFPSYAMGWYRKAPGKERELVAAISDSDGSTYYADSVKGRFTISRDNAKNTVYLQMNSLKPEDTAVYYCAAEGSFPAYDYWGQGTQVTVSS", "polyreactivity (PSR sort gate)": "low polyreactivity"}]}]}
